This is an account of results in patent publication US20210253718A1 (MODMAB THERAPEUTICS, published 2021).

Where a chain is given by its changes, count along the chain named.

The labels stand for the following.
T1: FZD10 cysteine-rich domain (CRD), MYC-tagged and GPI-anchored on CHO cells (human, UniProt Q9ULW2 30-156, GPI anchor)
T1 construct: also called FZD10 CRD; CHO-myc-FZDGPI; not shown: MYC tag and GPI anchor signal
T1 sequence: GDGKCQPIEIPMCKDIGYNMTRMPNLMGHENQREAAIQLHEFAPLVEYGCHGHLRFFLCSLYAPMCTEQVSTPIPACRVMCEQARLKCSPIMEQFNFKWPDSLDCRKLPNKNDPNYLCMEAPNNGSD

T2: FZD8 cysteine-rich domain (CRD), MYC-tagged and GPI-anchored on CHO cells (human, UniProt Q498S8 31-155 (rat entry), GPI anchor)
T2 construct: also called FZD8 CRD; CHO-myc-FZDGPI; not shown: MYC tag and GPI anchor signal
T2 sequence: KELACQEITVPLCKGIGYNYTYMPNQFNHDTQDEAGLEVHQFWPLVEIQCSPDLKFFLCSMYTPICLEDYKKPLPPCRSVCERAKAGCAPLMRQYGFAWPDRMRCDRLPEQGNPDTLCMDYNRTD

T3: FZD9 cysteine-rich domain (CRD), MYC-tagged and GPI-anchored on CHO cells (human, UniProt O00144 35-161, GPI anchor)
T3 construct: also called FZD9 CRD; CHO-myc-FZDGPI; not shown: MYC tag and GPI anchor signal
T3 sequence: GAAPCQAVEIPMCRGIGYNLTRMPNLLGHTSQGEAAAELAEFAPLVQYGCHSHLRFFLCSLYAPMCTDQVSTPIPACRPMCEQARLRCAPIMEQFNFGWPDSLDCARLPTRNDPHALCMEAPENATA

T4: FZD4 cysteine-rich domain (CRD), MYC-tagged and GPI-anchored on CHO cells (human, UniProt Q9ULV1 42-167, GPI anchor)
T4 construct: also called FZD4 CRD; CHO-myc-FZDGPI; not shown: MYC tag and GPI anchor signal
T4 sequence: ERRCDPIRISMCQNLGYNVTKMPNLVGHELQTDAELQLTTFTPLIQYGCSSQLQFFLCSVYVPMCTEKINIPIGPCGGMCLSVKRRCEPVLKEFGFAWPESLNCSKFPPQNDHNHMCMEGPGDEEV

T5: FZD3 cysteine-rich domain (CRD), MYC-tagged and GPI-anchored on CHO cells (human, UniProt Q9NPG1 24-150, GPI anchor)
T5 construct: domain: cysteine-rich domain (CRD); also called FZD3 CRD; CHO-myc-FZDGPI; not shown: MYC tag and GPI anchor signal
T5 sequence (looked up): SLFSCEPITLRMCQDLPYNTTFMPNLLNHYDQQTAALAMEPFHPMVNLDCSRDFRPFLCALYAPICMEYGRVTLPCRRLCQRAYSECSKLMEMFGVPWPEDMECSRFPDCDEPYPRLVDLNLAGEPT

T6: FZD5 cysteine-rich domain (CRD), MYC-tagged and GPI-anchored on CHO cells (human, UniProt Q13467 29-156, GPI anchor)
T6 construct: also called FZD5 CRD; CHO-myc-FZDGPI; not shown: MYC tag and GPI anchor signal
T6 sequence: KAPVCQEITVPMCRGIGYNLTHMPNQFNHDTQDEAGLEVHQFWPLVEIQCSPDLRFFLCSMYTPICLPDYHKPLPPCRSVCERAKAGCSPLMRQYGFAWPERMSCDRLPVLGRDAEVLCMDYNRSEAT

T7: FZD6 cysteine-rich domain (CRD), MYC-tagged and GPI-anchored on CHO cells (human, UniProt O60353 20-146, GPI anchor)
T7 construct: also called FZD6 CRD; CHO-myc-FZDGPI; not shown: MYC tag and GPI anchor signal
T7 sequence: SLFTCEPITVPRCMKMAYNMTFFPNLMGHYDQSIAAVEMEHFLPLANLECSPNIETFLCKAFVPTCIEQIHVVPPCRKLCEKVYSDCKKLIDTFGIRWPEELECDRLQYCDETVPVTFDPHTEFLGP

B1: Fab-2934 (Fab, V domains shown)
VH: EVQLVESGGGLVQPGGSLRLSCAASGFNISYSYMHWVRQAPGKGLEWVASIYSSSGSTSYADSVKGRFTISADTSKNTAYLQMNSLRAEDTAVYYCARGAIDYWGQGTLVTVSS
VL: DIQMTQSPSSLSASVGDRVTITCRASQSVSSAVAWYQQKPGKAPKLLIYSASSLYSGVPSRFSGSRSGTDFTLTISSLQPEDFATYYCQQWYHYGLITFGQGTKVEIK
notes: Fab; also called Fv-2934
B2: Fab-2923 (Fab, V domains shown)
VH: B1 VH with I29L, S30Y, S32Y, I101M
VL: DIQMTQSPSSLSASVGDRVTITCRASQSVSSAVAWYQQKPGKAPKLLIYSASSLYSGVPSRFSGSRSGTDFTLTISSLQPEDFATYYCQQWYGYSALITFGQGTKVEIK
notes: Fab; also called Fv-2923
B3: Fab-2935 (Fab, V domains shown)
VH: B1 VH with S30Y, S32Y, M34I, S53P, G99A, I101F
VL: B2 VL with Y94G, S95Y
notes: Fab; also called Fv-2935
B4: Fab-2902 (Fab, V domains shown)
VH: B1 VH with S32Y, M34I, Y52S, G56S, I101L
VL: B2 VL with G93A, Y94F, S95G
notes: Fab; also called Fv-2902
B5: Fab-2909 (Fab, V domains shown)
VH: EVQLVESGGGLVQPGGSLRLSCAASGFNISSSYMHWVRQAPGKGLEWVASISSSSGYTSYADSVKGRFTISADTSKNTAYLQMNSLRAEDTAVYYCARTVRGSKKPYFSGWAMDYWGQGTLVTVSS
VL: B2 VL with W91S, Y92W, G93S, S95H, A96Y
notes: Fab; also called Fv-2909

The first test addresses T1, FZD10 cysteine-rich domain (CRD), …. The test can be described thus: flow cytometry, CHO-CRD cells.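 Note: flow cytometry of Fab binding to CHO cells overexpressing a Frizzled CRD, with binding defined as median fluorescence over twice that of CHO cells lacking any Frizzled CRD.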
Experimental: (§1) Binding was measured via flow cytometry analysis of CHO cells overexpressing CRD of FZD1, FZD2, FZD3, FZD4, FZD5, FZD6, FZD7, FZD8, FZD9 or FZD10. Median fluorescence values are shown.
B1 returned a median fluorescence of 2.67.

The molecule B2 came in with a median fluorescence of 4.22.

B3 came in with a median fluorescence of 3.34.

B4: the median fluorescence worked out at 4.1.

The molecule B5 came in with a median fluorescence of 2.71.

For the next test, the target named is T2, FZD8 cysteine-rich domain (CRD), …. The test can be described thus: flow cytometry, CHO-CRD cells.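 Note: flow cytometry of Fab binding to CHO cells overexpressing a Frizzled CRD, with binding defined as median fluorescence over twice that of CHO cells lacking any Frizzled CRD.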
Experimental: as §1
The molecule B1 gave a median fluorescence of 29.4.

With B2, the median fluorescence was determined as 11.9.

On to B3, for which the median fluorescence turned out to be 15.8.

B4 displayed a median fluorescence of 13.9.

The target of another test is T8, FZD1 cysteine-rich domain (CRD), MYC-tagged and GPI-anchored on CHO cells (human). In words: flow cytometry, CHO-CRD cells.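 Note: flow cytometry of Fab binding to CHO cells overexpressing a Frizzled CRD, with binding defined as median fluorescence over twice that of CHO cells lacking any Frizzled CRD.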
Experimental: as §1
B1 gave a median fluorescence of 61.5.

Regarding B2, the median fluorescence stood at 6.04.

In the case of B3, the median fluorescence worked out at 4.07.

On to B4, for which the median fluorescence was found to be 6.1.

On to B5, for which the median fluorescence was determined as 4.61.

The target of the next test is T3, FZD9 cysteine-rich domain (CRD), …. The test can be described thus: flow cytometry, CHO-CRD cells.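 Note: flow cytometry of Fab binding to CHO cells overexpressing a Frizzled CRD, with binding defined as median fluorescence over twice that of CHO cells lacking any Frizzled CRD.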
Experimental: as §1
In the case of B1, the median fluorescence is 2.71.

The molecule B2 had a median fluorescence of 4.83.

Take B3: the median fluorescence came to 3.52.

B4 yielded a median fluorescence of 3.96.

With B5, the median fluorescence came to 2.57.

A further test deals with T4, FZD4 cysteine-rich domain (CRD), …. In words: flow cytometry, CHO-CRD cells.
Experimental: as §1
Take B1: the median fluorescence was 4.78.

B5 returned a median fluorescence of 4.1.

For another test, the target named is T5, FZD3 cysteine-rich domain (CRD), …. The test can be described thus: flow cytometry, CHO-CRD cells.
Experimental: as §1
Take B1: the median fluorescence came out at 3.28.

Consider B2, for which the median fluorescence worked out at 6.67.

For the molecule B3, the median fluorescence was determined as 4.49.

The molecule B4 gave a median fluorescence of 6.44.

In turn, B5 returned a median fluorescence of 3.43.

The next test deals with T9, FZD2 cysteine-rich domain (CRD), MYC-tagged and GPI-anchored on CHO cells (human, UniProt Q14332 35-161). In words: flow cytometry, CHO-CRD cells.
Experimental: as §1
For B2, the median fluorescence stood at 7.91.

With B3, the median fluorescence turned out to be 6.79.

On to B4, for which the median fluorescence turned out to be 8.98.

B5 returned a median fluorescence of 5.38.

A further test addresses T6, FZD5 cysteine-rich domain (CRD), …. In words: flow cytometry, CHO-CRD cells.
Experimental: as §1
B1 gave a median fluorescence of 34.3.

Molecule B2 displayed a median fluorescence of 36.9.

For B3, the median fluorescence worked out at 29.2.

As for B4, the median fluorescence was 36.9.

Turning to B5, the median fluorescence amounted to 31.3.

In another test the target is T7, FZD6 cysteine-rich domain (CRD), …. The test can be described thus: flow cytometry, CHO-CRD cells.
Experimental: as §1
Regarding B1, the median fluorescence is 2.86.

B2 had a median fluorescence of 4.33.

Turning to B3, the median fluorescence came out at 3.37.

In the case of B4, the median fluorescence turned out to be 4.

Consider B5, for which the median fluorescence was found to be 2.89.

A further test deals with T10, FZD7 cysteine-rich domain (CRD), MYC-tagged and GPI-anchored on CHO cells (human, UniProt O75084 45-169). The test can be described thus: flow cytometry, CHO-CRD cells.
Experimental: as §1
Regarding B1, the median fluorescence was 3.52.

Regarding B2, the median fluorescence was 6.04.

B3 gave a median fluorescence of 3.

In turn, B4 came in with a median fluorescence of 16.

In turn, B5 returned a median fluorescence of 4.57.

A further test concerns the target T1, FZD10 cysteine-rich domain (CRD), …. The test can be described thus: immunofluorescence, CHO-CRD cells.
Regarding B1, the binding result was “no binding”.

For B2, the binding result is reported as “no binding”.

In the case of B3, the binding result is “no binding”.

As for B4, the binding result is reported as “no binding”.

B5: the binding result is recorded as “no binding”.

Another test addresses T8, FZD1 cysteine-rich domain (CRD), …. The test can be described thus: immunofluorescence, CHO-CRD cells.
B2: the binding result is “no binding”.

Regarding B3, the binding result is recorded as “no binding”.

Consider B4, for which the binding result is “no binding”.

With B5, the binding result is reported as “no binding”.

The target of another test is T3, FZD9 cysteine-rich domain (CRD), …. In words: immunofluorescence, CHO-CRD cells.
Turning to B1, the binding result is “no binding”.

Turning to B2, the binding result is recorded as “no binding”.

In the case of B3, the binding result is “no binding”.

For B4, the binding result is “no binding”.

Regarding B5, the binding result was “no binding”.

For another test, the target named is T4, FZD4 cysteine-rich domain (CRD), …. The test can be described thus: immunofluorescence, CHO-CRD cells.
For the molecule B1, the binding result is listed as “no binding”.

In the case of B5, the binding result is “no binding”.

For a further test, the target named is T5, FZD3 cysteine-rich domain (CRD), …. In words: immunofluorescence, CHO-CRD cells.
On to B1, for which the binding result is reported as “no binding”.

Consider B2, for which the binding result is on record as “no binding”.

With B3, the binding result is on record as “no binding”.

Regarding B4, the binding result is “no binding”.

Turning to B5, the binding result is given as “no binding”.

Another test concerns the target T9, FZD2 cysteine-rich domain (CRD), …. In words: immunofluorescence, CHO-CRD cells.
As for B2, the binding result was “no binding”.

Turning to B3, the binding result was “no binding”.

With B4, the binding result is on record as “no binding”.

B5: the binding result is “no binding”.

In another test the target is T7, FZD6 cysteine-rich domain (CRD), …. The test can be described thus: immunofluorescence, CHO-CRD cells.
In the case of B1, the binding result is “no binding”.

As to B2, the binding result is reported as “no binding”.

Consider B3, for which the binding result is given as “no binding”.

With B4, the binding result is reported as “no binding”.

Regarding B5, the binding result is given as “no binding”.

For another test, the target named is T10, FZD7 cysteine-rich domain (CRD), …. In words: immunofluorescence, CHO-CRD cells.
In the case of B1, the binding result was “no binding”.

With B2, the binding result is “no binding”.

Turning to B3, the binding result is given as “no binding”.
